Two substances from patent US20110039729A1 can be followed below.

For experiment [1], the target named is soybean agglutinin (SBA), GalNAc-specific lectin (soybean) (UniProt P05046). Briefly: single SBA panning step, 8×10^6 cfu glycophage alone.
For experiment [2] the target is unchanged. Briefly: single SBA panning step, 8×10^6 cfu glycophage mixed with an equal amount of aglycosylated phage.
Experiment [3] shares this target. The experiment is described as follows: single SBA panning step, glycophage with 10^2-fold excess of aglycosylated phage.
The target is the same in experiment [4].
Experiment [5] has the same target. Briefly: single SBA panning step, glycophage with 10^4-fold excess of aglycosylated phage.
Experiment [6] shares this target. Briefly: single SBA panning step, 8×10^10 aglycosylated phage applied.

UniProt P05046, sequence (P05046 33-285 limits assumed): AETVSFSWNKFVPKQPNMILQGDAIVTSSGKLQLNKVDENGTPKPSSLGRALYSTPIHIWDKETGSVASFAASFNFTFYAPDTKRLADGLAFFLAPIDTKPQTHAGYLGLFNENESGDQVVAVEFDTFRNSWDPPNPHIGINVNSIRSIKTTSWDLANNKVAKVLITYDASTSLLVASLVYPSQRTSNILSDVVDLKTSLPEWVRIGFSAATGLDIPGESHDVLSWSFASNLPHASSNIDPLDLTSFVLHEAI

For “glycosylated AcrA-g3p fusion protein from TG1 pgl+ cells (in lysates and displayed on phage) (from UniProt P69168 19-424)”, in experiment [1], the percent of phages recovered was determined as 96% and the phages recovered is 7.7e+06 cfu. Further, in experiment [2], the percent of phage bound by SBA was found to be 96% and the phage bound by SBA was found to be 7.8e+06 cfu. For the same substance, in experiment [3], the percent of phage bound by SBA was 93% and the phage bound by SBA was found to be 7.4e+06 cfu. In addition, in experiment [4], the fold increase in phage titer in the eluate worked out at 1000 fold and the phage titer in the eluate was 1e+06 cfu/ml. Further, in experiment [5], the percent of phage bound by SBA came to 79% and the phage bound by SBA came out at 6.3e+06 cfu.

“non-glycosylated AcrA-g3p fusion protein from TG1 pglmut cells (in lysates and displayed on phage) (from UniProt P69168 19-424)” showed a phage titer in the eluate in experiment [4] of 1000 cfu/ml. Further, the infectious particles bound to SBA in experiment [6] was determined as 38000 cfu.
